Experimental data as given in patent US8329186B2, “Treatment of inflammation using BST2 inhibitor” (Isu Abxis Co., Ltd, priority 2004, dated 2012).
Entries after “also recorded” stand apart in the source; their conditions may differ.

Tests used:
U937 cells [1] = test: Homotypic aggregation of U937 cells induced by PMA and LPS; format: cell-based, human; settings: decoy medium from CHO-S cells, in comparison with control medium
Experimental: Expression levels of Bst2 protein were examined during aggregation of human U937 monocytic cells. […] To determine the degree of cell aggregation, the size of formed cell aggregates was measured as pixel intensity, using Adobe's Photoshop software, version 7.0. The standard deviation values shown in drawings were calculated from mean values of six randomly selected aggregates. Thereafter, all used cells were recovered, and total RNA was isolated and subjected to RT-PCR using a set of primers of SEQ ID NOS:3 and 4 to assess Bst2 expression levels.
1×10^6 U937 cells, which had been cultured under the aforementioned conditions, were seeded onto a 96-well cell culture plate (NUNC) and treated with PMA (2 ng/ml, Calbiochem) and LPS (10 μg/ml, Calbiochem) for 24 hrs. The cells were then observed for the degree of homotypic cell aggregation under a phase-contrast inverted microscope (Olympus 1X71, state, USA).
U937 cells were pretreated with PMA and LPS to induce cell aggregation, and were treated with serial dilutions of medium (decoy medium) containing a Bst2 decoy transiently expressed in CHO-S cells.

HUVECs and U937 cells = test: Heterotypic aggregation/adhesion between IFN-γ-treated HUVECs and U937 cells; format: cell-based, human
Experimental: HUVECs (1−5×10^4 cells/ml) were seeded onto a 12-well cell culture plate. After one day, the medium was exchanged with a low-serum medium containing 0.5% FBS, and the cells were pretreated with interferon-gamma (IFN-γ; Calbiochem) in a final concentration 10 ng/ml for 24 hrs. Then, the pretreated HUVECs were co-cultured with U937 cells (2×10^6 cells/ml, 500 μl) at 37° C. for 4 hrs. The co-culture was washed with phosphate buffer three or four times, and the remaining cells were fixed with 4% paraformaldehyde and microscopically observed.
HUVECs were transfected with an expression vector for Bst2, treated with or without IFN-γ and then transfected with Bst2 siRNA. These cells were assessed for U937 cell adhesion.
HUVECs were cultured in 12-well plates with or without transfection of Bst2 siRNA or control siRNA for 6 hr, then treated with or without IFNγ for 24 hr. In some experiments, cells were treated with crude media containing Bst2 decoy or mouse anti-human ICAM1 antibodies. After a wash with PBS (phosphate buffered saline), U937 cells were resuspended in serum free medium at 2×10^6 cells/ml. Assays were initiated by the addition of 200 ul U937 cells to HUVEC for a final volume of 1 ml. After 4 hr at 37° C., unbound U937 cells were removed by washing plates three times with PBS. Bound cells were fixed by the addition of 4% paraformaldehyde in PBS, and the bound cells were counted under microscopy in different fields. All statistical analyses were performed in Excel and statistical significance were evaluated with Student's t test. In some experiments, RNA samples were obtained from HUVECs after treatment with IFNγ and/or siRNAs, and real-time polymerase chain reaction (RT-PCR) analyses were performed.

U937 cells [2] = test: Direct binding of U937 cells to Bst2 decoy-coated plates; set-up: species or system human; settings: Bst2 decoy-coated wells vs BSA
Experimental: Flat-bottomed 96-well plates were coated with Bst2 decoy with sodium bicarbonate (100 mM, pH 9.5) for 2 hrs at 37° C. The plates were washed with PBS (pH 7.4) and incubated with 1% bovine serum albumin (BSA) at 25° C. After a rinse with PBS (pH 7.4) containing 1 mM CaCl2 and 0.5 mM MgCl2, U937 cells (1×10^6/ml) were added to each dBst2-coated well. After 2 hrs of incubation at 37° C., unbound cells were removed by two gentle washes with RPMI1640 media (Gibco-BRL) and bound cells were fixed with 2% paraformaldehyde for 20 minutes, washed, and stained with 0.5% crystal violet. After 30 minutes at 25° C., the plates were washed with PBS and bound cells were counted.

[3] = test system: OVA-induced atopic dermatitis; test: OVA-induced atopic dermatitis model in mice; format: in vivo, BALB/c mice
Experimental: An experimental model of atopic dermatitis based on immunity against ovalbumin (OVA) was utilized to test Bst2 decoy for efficacy in atopic dermatitis. BALB/c mice were immunized at the beginning of weeks 1, 2, and 3 with intraperitoneal injections of OVA/ALUM. During week 4, an OVA-soaked patch was applied to the shaved backs of the animals. The patches were removed and 5 daily doses of Bst2 decoy was administered to the animal by intravenous injections of 10 mg/kg during week 5. OVA-soaked patches were applied again to the animals over week 6 and the animals were sacrificed for evaluation at the beginning of week 7 (FIG. 43).
Serum was prepared from blood sample collected from the sacrificed animals. OVA-specific IgE levels were determined by ELISA assays in which OVA was coated on the plate, OVA-specific immunoglobulin present in the serum samples allowed to blind, and IgE levels ascertained utilizing anti-IgE specific antibodies.

CLP sepsis = test: Cecal ligation and puncture (CLP) sepsis model: survival; format: in vivo, rat
Source text: (§1) A rat model of sepsis was induced through cecal ligation and puncture (CLP) as described previously (Wichterman K A, Baue A E, Chaudry I H: Sepsis and septic shock-a review of laboratory models and a proposal. J Surg Res 29:189-201, 1980). An incision was made along the midline of the abdomen on an anesthetized animal. The cecum was exteriorized, ligated and punctured with a stainless steel needle. An appropriate amount of fecal matter was then extruded. The gauge of the needle, number of punctures and amount of fecal matter extruded are all factors in determining the severity of sepsis and mortality. […] The incision was sutured and appropriate post-operative care was administered. Sham-operated animals were subjected to similar laparotomy and intestinal manipulation, however, the cecum was neither ligated nor punctured. Immediately or 6 hours after the CLP procedure, animals were given intravenous injection of vehicle or a Bst2 decoy.
Mortality of animals was monitored for up to 14 days after the procedure. […] 3, 10, and 30 mg/kg doses were administered immediately following the CLP procedure and daily survival monitored over the course of 14 days.

TNF-alpha, IL-6, HMGB-1 = test: CLP sepsis model: plasma inflammatory proteins (ELISA); format: in vivo, rat
Source text: as §1
Blood samples were collected at 1, 3, 6, 18 and 24 hours post-CLP. Plasma levels of representative inflammatory response proteins were measured using ELISA kits; TNF-alpha(BD Biosciences, San Diego, Calif.) and IL-6(BD Biosciences, San Diego, Calif.) at 1, 3, and 6 hours, HMGB-1 (Shino-Test Corp., Japan) at 18 and 24 hours. Typically, after CLP in rodents, TNF-alpha spikes at 3 hours and IL-6 spikes at 6 hours.

B1: Bst2 decoy: soluble Bst2 protein fragment having the amino acid sequence of SEQ ID NO:1; extracellular region of human Bst2, six-histidine tag (protein)
chain: NSEACRDGLRAVMECRNVTHLLQQELTEAQKGFQDVEAQAATCNHTVMALMASLDAEKAQGQKKVEELEGEITTLNHKLQDASAEVERLRRENQVLSVRIADKKYYPSSQDHHHHHH
decrease of U937 cell aggregation induced by PMA and LPS (U937 cells [1]): 50% | binding of U937 cells to IFNγ-treated HUVECs (HUVECs and U937 cells; Bst2 decoy-containing medium, IFN-γ 10 ng/ml 24 hrs, co-culture 4 hrs): decreased binding | dose dependence of effect in heterotypic cell aggregation/adhesion assay (HUVECs and U937 cells; IFNγ-treated HUVECs and U937 cells): dependent on concentrations; also recorded: dose-dependent response | attachment of U937 cells to coated wells (U937 cells [2]): attached | formation of lesions after OVA-soaked patch ([3]; 10 mg/kg intravenous, 5 daily doses during week 5, end of week 6): little if any formation of lesions | serum OVA-specific IgE levels ([3]; ELISA): substantial reduction | inflammation in H&E stained skin sections ([3]; to a level similar to the negative control group): marked decrease in inflammation | 14 day survival rate (CLP sepsis; 3 mg/kg intravenous immediately following CLP): 37.5% | 14 day survival rate (CLP sepsis; 10 mg/kg intravenous immediately following CLP): 80% | 14 day survival rate (CLP sepsis; 30 mg/kg intravenous immediately following CLP): 75% | 14-day survival rate (CLP sepsis; administration 6 hours post-CLP): 70% | plasma IL-6 spike (TNF-alpha, IL-6, HMGB-1; 1, 3 and 6 hours post-CLP): substantially suppressed | plasma TNF-alpha response (TNF-alpha, IL-6, HMGB-1; 1, 3 and 6 hours post-CLP): virtually absent | plasma HMGB-1 (TNF-alpha, IL-6, HMGB-1; 18 and 24 hours post-CLP): reducing both the amount and rate of increase
